B1: Hairpin Ribozyme (parent)
chain: GUCCUCUUUCACGUGCGCGUGAAAGAGAGAAGUGAACCAGAGAAACACACGUUGUGGUAUAUUACCUGGUA

Variants of: B1
Test: self-cleavage, relative activity (ratio to wild type); higher = more cleavage; co-transcriptional

| Variant | self-cleavage |
| --- | --- |
| A44C A71U | 0.152 |
| A44C U60C | 0.0498 |
| A43U A45U | 0.164 |
| G42U U60A | 0.178 |
| G42U U60C | 0.241 |
| G42U U60G | 0.218 |
| A45U U67C | 0.0755 |
| A45C C65G | 0.0639 |
| A45C C65U | 0.102 |
| A43G G68C | 0.0248 |
| A45C G57U | 0.249 |
| A44G A61G | 0.152 |
| A44G A61U | 0.189 |
| A44G A61C | 0.0999 |
| A44C U52G | 0.203 |
| A45U G56A | 0.166 |
| A44G G69A | 0.0936 |
| C46G C66A | 0.253 |
| C46G C66G | 0.162 |
| C46G C66U | 0.215 |
| C46A A71G | 0.24 |
| C46A A59G | 0.107 |
| G42U C50U | 0.197 |
| A44C G68C | 0.0374 |

| Variant | self-cleavage |
| --- | --- |
| A44G G68U | 0.173 |
| A45G U52C | 0.0811 |
| A45G U52A | 0.0852 |
| G42U A44C | 0.188 |
| G42U A44U | 0.19 |
| A44U U53G | 0.159 |
| A44U U53A | 0.079 |
| A43G | 0.148 |
| A43C | 0.141 |
| A43U | 0.151 |
| A43C C66G | 0.0604 |
| A43G U60A | 0.202 |
| A43G U60G | 0.0362 |
| G42U A71C | 0.6 |
| A43G A49G | 0.0811 |
| A44U A64G | 0.202 |
| G42A U63C | 0.113 |
| A43C C46G | 0.245 |
| A43C C46A | 0.1 |
| A43G C65A | 0.0913 |
| A43U U58G | 0.0898 |
| A43U U58A | 0.0678 |
| A43U A64U | 0.266 |
| A43U A64C | 0.161 |

| Variant | self-cleavage |
| --- | --- |
| A43U A47G | 0.121 |
| A43U A47U | 0.145 |
| G42C G54A | 0.159 |
| G42C G54U | 0.17 |
| G42A U67C | 0.105 |
| A45G U58C | 0.269 |
| C46A C50U | 0.111 |
| A44C A45G | 0.208 |
| A44U U58G | 0.136 |
| G42C A45C | 0.0604 |
| C46A U55G | 0.253 |
| C46A U55C | 0.324 |
| A43G U70C | 0.19 |
| A43G U70G | 0.288 |
| A43G U70A | 0.225 |
| A44U G54C | 0.0888 |
| A44U G54U | 0.0855 |
| A43G A59G | 0.094 |
| C46G A71C | 0.211 |
| A44U A61U | 0.124 |
| A44U A61C | 0.0833 |
| A44C C65A | 0.213 |
| A44G C48A | 0.102 |
| A43U G69U | 0.174 |

| Variant | self-cleavage |
| --- | --- |
| A44C C50A | 0.0943 |
| A43G A61C | 0.0791 |
| A44C A61G | 0.115 |
| A44G U52G | 0.231 |
| C46A A49C | 0.156 |
| A45U C50A | 0.145 |
| A45C U70A | 0.222 |
| A45C U70C | 0.241 |
| A45C C48U | 0.145 |
| G42U C46A | 0.201 |
| A43G G57A | 0.198 |
| A43G G57U | 0.151 |
| A43C G57C | 0.204 |
| A43C G57A | 0.137 |
| A44G U62G | 0.207 |
| A44G U62A | 0.0675 |
| A44G A71C | 0.143 |
| A44U C46A | 0.116 |
| G42C U70C | 0.233 |
| G42C U70A | 0.222 |
| A43U C46G | 0.0741 |
| A43U C46A | 0.0823 |
| A44U G56U | 0.231 |
| A43U U60A | 0.255 |

| Variant | self-cleavage |
| --- | --- |
| A45G G57C | 0.0828 |
| A43U U53G | 0.046 |
| A43U U53C | 0.111 |
| A43U U53A | 0.206 |
| C46A G68A | 0.12 |
| C46A G68C | 0.277 |
| A45G A61G | 0.169 |
| A45G A61U | 0.0962 |
| G42C U52G | 0.237 |
| A43C U58G | 0.262 |
| A43C U58C | 0.148 |
| A43U A71U | 0.179 |
| A43U A71G | 0.247 |
| A44U G68U | 0.187 |
| A43G G54U | 0.156 |
| A43G G54C | 0.168 |
| A44C A47U | 0.135 |
| G42C A47G | 0.116 |
| A43C A59C | 0.195 |
| A43C U52A | 0.136 |
| A45G U62G | 0.12 |
| A45G U62A | 0.0572 |
| G42U C48U | 0.132 |
| A44G U58A | 0.17 |

| Variant | self-cleavage |
| --- | --- |
| C46A C65G | 0.146 |
| C46A C65A | 0.13 |
| A45C U55G | 0.0998 |
| A45C U55C | 0.244 |
| A45C U63A | 0.0272 |
| A44U U63G | 0.209 |
| G42C A49C | 0.215 |
| C46A U63A | 0.12 |
| C46A U63C | 0.225 |
| A45U G51A | 0.075 |
| A43C U70G | 0.12 |
| A43C U70C | 0.164 |
| A44U A45G | 0.102 |
| A44U A45U | 0.229 |
| A44C C46U | 0.238 |
| A44C C46G | 0.0995 |
| A44C C46A | 0.141 |
| G42C U58A | 0.218 |
| A43U U52C | 0.143 |
| A43U U52G | 0.139 |
| A45C G51C | 0.0857 |
| A44G U60C | 0.0999 |
| A44G U60G | 0.0699 |
| C46A G56A | 0.167 |

| Variant | self-cleavage |
| --- | --- |
| A45U C66G | 0.236 |
| A44C C48U | 0.0439 |
| A44U G69U | 0.299 |
| A44U G69A | 0.15 |
| G42U A49C | 0.173 |
| A43C G54U | 0.241 |
| A44U C65A | 0.184 |
| A44U C65G | 0.178 |
| A44G U53C | 0.248 |
| C46G A49G | 0.137 |
| A43U U70C | 0.159 |
| G42C C46A | 0.166 |
| A43U U55A | 0.129 |
| A43C U53G | 0.103 |
| G42C G56A | 0.155 |
| A45C A49C | 0.142 |
| A45C A49G | 0.0463 |
| A45C G54A | 0.132 |
| A45G G51C | 0.176 |
| A44U U52C | 0.059 |
| A45U G68A | 0.169 |
| A45U G68U | 0.258 |
| G42U A59C | 0.118 |

Reference: the RNAGym collection of RNA variant scans (doi:10.7554/elife.80360)
